Results: patent publication US20070105771A1 (Y S THERAPEUTICS, published 2007)
Positions count from the first letter of the chain named.

B1: Fab comprising X377 VL and CM03 VH (Fab, V domains shown)
VH: QVKLQESGPGLVQPSQTLSITCTVSGFSLTTYGVHWVRQSPGKGLEWLGVIWGGGRTDYDAAFISRLSISKDNSKSQVFFKMNSLQANDTAIYYCVRNRHDWFDYWGQGTTVTVSS
VL: EIELTQSPSSLSVSLGDRVTISCSASQDIRNNLNWYQQKPGQAPRLLIYYSSNLQTGVPARFSGSGSGTDFTLTISRLEPEDVAAYYCQQSIKLPFTFGSGTKVEIK
notes: Fab made in E. coli; also called X377 Fab
B2: Fab comprising X378 VL and CM03 VH (Fab, V domains shown)
VH: B1 VH
VL: DIEMTQSPSSLSASAGERVTISCRASQGIRNSLNWYQQKPGQAPRLLIYYSSNLQTGVPSRFSGSGSGTDFTLTISRLQAEDFATYYCQQSNKLPFTFGSGTKVEIK
notes: Fab made in E. coli
B3: Fab comprising X379 VL and CM03 VH (Fab, V domains shown)
VH: B1 VH
VL: DILLTQSPSSLSATPGERATITCRASQGIRNNLNWYQQKPGQAPRLLIYYSSNLQSGVPSRFSGSGSGTDFTLTISRLQPEDVAAYYCQQSIKLPFTFGSGTKVEIK
notes: Fab made in E. coli
B4: Fab comprising X380 VL and CM03 VH (Fab, V domains shown)
VH: B1 VH
VL: B1 VL with L4M, L15A, D17E, V19A, N32S, Q55H, A85I, I92N, F96L
notes: Fab made in E. coli
B5: Fab comprising X381 VL and CM03 VH (Fab, V domains shown)
VH: B1 VH
VL: B1 VL with L15P, D28G, N32S, Q55H, E79Q, P80A, V83F, A85T, F96L
notes: Fab made in E. coli
B6: Fab comprising X376 VL and CM03 VH (Fab, V domains shown)
VH: B1 VH
VL: DILMTQSPSSLSASPGDRVTISCRASQDIRNNLNWYQQKPGQAPRLLIYYSSNLHSGVPDRFSGSGSGTDFTLTISRLEPEDFAAYYCQQSIKLPLTFGSGTKVEIK
notes: Fab made in E. coli
B7: Fab comprising X385 VH and CM03 VL (Fab, V domains shown)
VH: EVQLVQSGGGVKQPGETLRLTCTASGFSLTTYGVHWVRQAPGKGLEWVGVIWGDGRTDYDAAFMSRVTISKDTSKSTAYLQMNSLRAEDTAVYYCMRNRHDWFDYWGQGTTVTVSS
VL: DIQMTQSPSSLSASLGDRVTITCSASQGIRNSLNWYQQKPDGAVKLLIYYSSNLHSGVPSRFSGSGSGTDFSLTISNLEPEDIATYYCQQSIKLPFTFGSGTKLEIK
notes: Fab made in E. coli
B8: Fab comprising X388 VH and CM03 VL (Fab, V domains shown)
VH: B7 VH with V11L, T21S, F27Y, V48M, A61S, A62S, M82L, M96T
VL: B7 VL
notes: Fab made in E. coli
B9: Fab comprising X386 VH and CM03 VL (Fab, V domains shown)
VH: B7 VH with Q6E, G9A, K12E, E16G, V48M, K71R, M82L, M96V
VL: B7 VL
notes: Fab made in E. coli
B10: Fab comprising X384 VH and CM03 VL (Fab, V domains shown)
VH: B7 VH with Q6E, G9A, E16G, A78V
VL: B7 VL
notes: Fab made in E. coli
B11: Fab comprising X387 VH and CM03 VL (Fab, V domains shown)
VH: EVQLVESGAELVQPGGSLRLTCKASGFTLNTYGVHWVRQAPGKGLEWMGVIWGGGRTDYDASFMSRVTISKDNSKNTAYLQLNSLRAEDTAVYYCTRSRHDWFDYWGQGTTVTVSS
VL: B7 VL
notes: Fab made in E. coli
B12: Fab X396 (X385 VH and X380 VL) (Fab, V domains shown)
VH: B7 VH
VL: B1 VL with L4M, L15A, D17E, V19A, N32S, Q55H, A85I, I92N, F96L
notes: Fab made in E. coli
B13: Fab X390 (X385 VH and X376 VL) (Fab, V domains shown)
VH: B7 VH
VL: B6 VL
notes: Fab made in E. coli
B14: Fab X391 (X388 VH and X376 VL) (Fab, V domains shown)
VH: B7 VH with V11L, T21S, F27Y, V48M, A61S, A62S, M82L, M96T
VL: B6 VL
notes: Fab made in E. coli
B15: Fab X393 (X385 VH and X379 VL) (Fab, V domains shown)
VH: B7 VH
VL: B3 VL
notes: Fab made in E. coli
B16: Fab X430 (X399 VH and X394 VL) (Fab, V domains shown)
VH: B7 VH with T30S, A78V
VL: B6 VL with H55Q, S56T, D60A
notes: also called Fab X429
B17: Fab X395 (X384 VH and X380 VL) (Fab, V domains shown)
VH: B7 VH with Q6E, G9A, E16G, A78V
VL: B1 VL with L4M, L15A, D17E, V19A, N32S, Q55H, A85I, I92N, F96L
notes: Fab made in E. coli
B18: Fab X399 (X399 VH and X380 VL) (Fab, V domains shown)
VH: B7 VH with T30S, A78V
VL: B1 VL with L4M, L15A, D17E, V19A, N32S, Q55H, A85I, I92N, F96L
notes: Fab made in E. coli
B19: Fab X431 (X420 VH and X380 VL) (Fab, V domains shown)
VH: B7 VH with Q6E, T30S, A78V
VL: B1 VL with L4M, L15A, D17E, V19A, N32S, Q55H, A85I, I92N, F96L
notes: also called Fab X420
B20: Fab X389 (X384 VH and X376 VL) (Fab, V domains shown)
VH: B7 VH with Q6E, G9A, E16G, A78V
VL: B6 VL
notes: Fab made in E. coli
B21: Fab X394 (X384 VH and X394 VL) (Fab, V domains shown)
VH: B7 VH with Q6E, G9A, E16G, A78V
VL: B6 VL with H55Q, S56T, D60A
notes: Fab made in E. coli
B22: Fab X392 (X384 VH and X379 VL) (Fab, V domains shown)
VH: B7 VH with Q6E, G9A, E16G, A78V
VL: B3 VL
notes: Fab made in E. coli
B23: rhuMAb 410 (antibody, human IgG1, V domains shown)
VH: B7 VH with V11L, T21S, F27Y, V48M, A61S, A62S, M82L, M96T
VL: DILMTQSPSSLSASPGDRVTISCRASQDIRNNLNWYQQKPGQAPRLLIYYSSNLHSGVPDRFSGSGSGTDFTLTISRLEPEDFAAYYCQQSIKLPLTFGSGTKVEIKR

biological target: T1, Purified recombinant human CD26 (rhDipeptidyl peptidase IV), R&D Systems CAT #1180-SE (human, UniProt P27487 29-766); experiment: SPR (Biacore), Fab
T1 construct: Bought recombinant protein; also called hu-CD26; soluble human CD26
Procedure: (§1) Fabs produced in E. coli as described below were diluted in PBS in a concentration of ˜0.5 μM for the assay. A typical recording included a 3 minute period of injection of the Fab followed by a period of 15 minutes of dissociation, and analysis was performed based on the raw data of the binding curves accordingly.
The CD26 binding partner was as shown below.

T1 sequence (P27487 29-766 limits assumed): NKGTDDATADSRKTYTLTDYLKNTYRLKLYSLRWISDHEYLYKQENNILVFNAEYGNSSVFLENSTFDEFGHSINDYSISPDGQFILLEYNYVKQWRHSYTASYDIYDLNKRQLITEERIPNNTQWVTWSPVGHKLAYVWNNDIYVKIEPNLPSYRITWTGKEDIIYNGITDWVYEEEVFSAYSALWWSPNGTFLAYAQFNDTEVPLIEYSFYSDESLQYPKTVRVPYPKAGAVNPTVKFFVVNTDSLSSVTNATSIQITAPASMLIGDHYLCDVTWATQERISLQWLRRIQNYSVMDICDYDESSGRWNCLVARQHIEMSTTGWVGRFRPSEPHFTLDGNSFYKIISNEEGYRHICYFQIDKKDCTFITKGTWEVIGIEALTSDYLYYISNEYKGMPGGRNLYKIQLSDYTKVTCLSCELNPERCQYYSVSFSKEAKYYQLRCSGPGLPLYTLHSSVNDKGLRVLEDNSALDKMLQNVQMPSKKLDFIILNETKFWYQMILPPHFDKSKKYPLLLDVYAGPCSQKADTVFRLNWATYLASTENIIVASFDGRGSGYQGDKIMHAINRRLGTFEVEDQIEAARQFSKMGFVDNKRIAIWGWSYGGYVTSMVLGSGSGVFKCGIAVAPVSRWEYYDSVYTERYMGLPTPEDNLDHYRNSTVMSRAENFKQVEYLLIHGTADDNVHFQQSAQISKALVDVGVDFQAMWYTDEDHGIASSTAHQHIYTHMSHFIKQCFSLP

| Binder | Kd | koff | kon |
| --- | --- | --- | --- |
| B1 | 1.88 nM | 0.000596 s⁻¹ | 317000 M⁻¹ s⁻¹ |
| B2 | 2.92 nM | 0.00083 s⁻¹ | 285000 M⁻¹ s⁻¹ |
| B3 | 1.16 nM | 0.00067 s⁻¹ | 578000 M⁻¹ s⁻¹ |
| B4 | 2.33 nM | 0.000687 s⁻¹ | 294000 M⁻¹ s⁻¹ |
| B5 | 2.1 nM | 0.000601 s⁻¹ | 293000 M⁻¹ s⁻¹ |
| B6 | 2.31 nM | 0.000596 s⁻¹ | 258000 M⁻¹ s⁻¹ |

biological target: T1, Purified recombinant human CD26 …; experiment: SPR (Biacore), Fab; remark: another data set of the same source
Procedure: as §1

| Binder | Kd | koff | kon |
| --- | --- | --- | --- |
| B7 | 1.47 nM | 0.000375 s⁻¹ | 256000 M⁻¹ s⁻¹ |
| B8 | 2.98 nM | 0.000698 s⁻¹ | 235000 M⁻¹ s⁻¹ |
| B9 | 2.71 nM | 0.000498 s⁻¹ | 184000 M⁻¹ s⁻¹ |
| B10 | 1.19 nM | 0.000312 s⁻¹ | 262000 M⁻¹ s⁻¹ |
| B11 | 51.1 nM | 0.01 s⁻¹ | 196000 M⁻¹ s⁻¹ |

biological target: T1, Purified recombinant human CD26 …; experiment: SPR (Biacore), Fab; remark: another data set of the same source

| Binder | Kd | ratio of the Kd of CM03 Fab to the Kd of individual clone |
| --- | --- | --- |
| B7 | 1.5 nM |  |
| B12 | 2.53 nM |  |
| B13 | 0.96 nM | 1.7 |
| B14 | 2.12 nM |  |
| B15 | 0.33 nM | 4.94 |
| B16 | 1.19 nM | 1.37 |
| B8 | 3 nM |  |
| B9 | 2.7 nM |  |
| B17 | 3.26 nM | 0.5 |
| B18 | 2.85 nM |  |
| B10 | 1.2 nM |  |
| B19 | 0.92 nM |  |
| B1 | 1.9 nM |  |
| B2 | 2.9 nM |  |
| B3 | 1.2 nM |  |
| B4 | 2.3 nM |  |
| B5 | 2.1 nM |  |
| B6 | 2.3 nM |  |
| B20 | 0.38 nM | 4.29 |
| B21 | 0.58 nM | 2.81 |
| B22 | 0.24 nM | 6.79 |
| B11 | 51 nM |  |

biological target: T1, Purified recombinant human CD26 …; experiment: SPR (Biacore), Fab; remark: another data set of the same source

| Binder | Kd |
| --- | --- |
| B12 | 2.53 nM |
| B13 | 0.96 nM |
| B14 | 2.12 nM |
| B15 | 0.33 nM |
| B16 | 1.19 nM |
| B17 | 3.26 nM |
| B18 | 2.85 nM |
| B19 | 0.92 nM |
| B20 | 0.38 nM |
| B21 | 0.58 nM |
| B22 | 0.24 nM |

biological target: human CD26 on the cell surface (human, UniProt P27487 1-766); experiment: cell-based or functional assay
Sequence (P27487 whole entry): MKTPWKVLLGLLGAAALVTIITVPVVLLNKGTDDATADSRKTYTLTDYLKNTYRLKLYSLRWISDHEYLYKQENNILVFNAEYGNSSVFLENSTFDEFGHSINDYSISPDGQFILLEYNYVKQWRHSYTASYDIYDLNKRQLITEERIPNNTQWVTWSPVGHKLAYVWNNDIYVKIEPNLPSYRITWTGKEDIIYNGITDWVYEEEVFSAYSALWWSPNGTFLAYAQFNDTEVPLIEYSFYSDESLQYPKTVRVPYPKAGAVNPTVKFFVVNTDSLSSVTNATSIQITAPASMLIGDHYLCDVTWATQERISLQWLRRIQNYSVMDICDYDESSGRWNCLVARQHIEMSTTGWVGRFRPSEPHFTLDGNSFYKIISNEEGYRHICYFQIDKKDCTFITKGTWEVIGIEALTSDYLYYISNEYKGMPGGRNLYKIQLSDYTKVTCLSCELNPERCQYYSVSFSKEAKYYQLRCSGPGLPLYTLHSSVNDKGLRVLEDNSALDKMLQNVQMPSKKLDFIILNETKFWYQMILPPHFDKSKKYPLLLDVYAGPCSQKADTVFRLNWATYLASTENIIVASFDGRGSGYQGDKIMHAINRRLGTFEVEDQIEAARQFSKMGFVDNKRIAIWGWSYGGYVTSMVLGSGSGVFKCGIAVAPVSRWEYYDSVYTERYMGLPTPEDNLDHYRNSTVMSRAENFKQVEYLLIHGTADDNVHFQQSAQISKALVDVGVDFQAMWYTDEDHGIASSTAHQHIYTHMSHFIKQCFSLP

| Binder | percent inhibition, MTT assay, Jurkat CD26+ cells, 0.05 ug/ml | percent inhibition, MTT assay, Jurkat CD26+ cells, 0.25 ug/ml | percent inhibition, MTT assay, Jurkat CD26+ cells, 0.5 ug/ml | percent inhibition, MTT assay, Jurkat CD26+ cells, 2.5 ug/ml | percent inhibition, MTT assay, Jurkat CD26+ cells, 5 ug/ml |
| --- | --- | --- | --- | --- | --- |
| B23 | 4% | 10.7% | 14% | 27.5% | 33.5% |

biological target: T1, Purified recombinant human CD26 …; experiment: SPR (Biacore), CD26 preoccupied by the Fab; competitor 14D10 ascites
Text: A specificity analysis of selected Fabs comprising pairs of variant VH and VL sequences was done. […] The analysis was done using Biacore® as described in Example 1.

| Binder | percent decrease in binding of 14D10 to CD26 |
| --- | --- |
| B12 | ≥ 80% |
| B13 | ≥ 80% |
| B14 | ≥ 80% |
| B15 | ≥ 80% |
| B17 | ≥ 80% |
| B20 | ≥ 80% |
| B22 | ≥ 80% |
